Experiment: yeast display, Sf9 membrane polyspecificity reagent, FACS + sequencing; frameworks hold sequencing errors
Procedure, shortened: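 Galactose induction of a Saccharomyces cerevisiae BJ5465 synthetic nanobody display library ran 36–48 hours. The cells were then stained for 1 hour at 4 °C with 10% biotinylated, detergent-solubilized Sf9 membrane reagent, pulled down on streptavidin microbeads and FACS-sorted into low and high (top ~1%) gates on expression and reagent-binding fluorescence. Labels for polyreactivity follow the gate of origin.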

Sequence | polyreactivity (PSR sort gate)
QVQLVESGGGLVQAGGSLRLSCAASGTISASYAMGWYRQATGKERELVAAISSGGDTNYADSVKGRFTISRDNAKNTVYLQMNSLKPEDTAVYYCAADTDSDQGSEYDYWGQGTQVTVSS | low polyreactivity
QVQLVESGGGLVQAGGSLRLSCAASGTTFGRNAMGWYRQAPGKERELVAAITACGGTTYYADSVKGRFTISRDNAKNTVYLQMNSLKPEDTAVYYCARAGHFSFKYDYWGQGTQVTVSS | low polyreactivity
QVQLVESGGGLVQAGGSLRLSCAASGTTFPIYAMGWYRQAPGKERELVADITSTGSTDYADSVKGRFTISRDNAKNTVYLQMNSLKPEDTAVYYCAAAWKAYRRYGYWGQGTQVTVSS | high polyreactivity
QVQLVESGGGLVQAGGSLRLSCAASGTTFYRNAMGWYRQAPGKERELVAAISWTGGRTYYADSVKGRFTISRDNAKNTVYLQMNSLKPEDTAVYYCNKGDSASSLDYWGQGTQVTVSS | high polyreactivity
QVQLVESGGGLVQAGGSLRLSCAASGTTISANAMGWYRQAPGKERELVAAIRWSDGRTYYADSVKGRFTISRDNAKNTVYLQMNSLKPEDTAVYYCNRVLSYHRHKLGMGYWGQGTQVTVSS | high polyreactivity
QVQLVESGGGLVQAGGSLRLSCAASGTTLYYYAMGWSRQAPGKERELVASITKSGASTYYADSVKGRFTISRDNAKNTVYLQMNSLKPEDTAVYYCARDPFWRGYTPRHYNYWGQGTQVTVSS | low polyreactivity
QVQLVESGGGLVQAGGSLRLSCAASGVIFGRYAMGWYREAPGKERELVAAISWGGGSTRYADSVKGRFTISRDNAKNTVYLQMNSLKPEDTAVYYCAAYRYWGRTSYSYDYWGQGTQVTVSS | high polyreactivity
QVQLVESGGGLVQAGGSLRLSCAASGVIFLWYAMGWYRQAPGKERELVARISNGGSTYYADSVKGRFTISRDNAKNTVYLQMISLKPEDTAVYYCNKVYYWIAYGHRSYLMDYWGQGTQVTVSS | high polyreactivity
QVQLVESGGGLVQAGGSLRLSCAASGVIFNRYAMGWYRQAPGKERELVAAISSGGNTHYADSVKGRFTISRDNAKNTDYLQMNSLKPEDTAVYYCAKAFRHSTFFAPYDYWGQGTQVTVSS | low polyreactivity
QVQLVESGGGLVQAGGSLRLSCAASGVIFVNNGMGWYRQAPGKERELVAAISSGGSTNYADSVKGRFTIARDNAKNTDYLQMNSLKPEDTAVYYCAVVDYLWLLQLWLSDYWGQGTQVTVSS | low polyreactivity
QVQLVESGGGLVQAGGSLRLSCAASGVIFVWYAMGWYRQAPGKERELVAAISSGGSTYYADSVKGRFTISRDNAKNTVYLQMNSLKPEDTAVYYCAADLWYYAYSYDYWGQGTQVTVSS | high polyreactivity
QVQLVESGGGLVQAGGSLRLSCAASGVTFAHNAMGWYRQAPGKERELVAAITRSGGSTYYADSVKGRFTISRDNAKNTVYLQMNSLKPEDTAVYYCIAGRRGSGYGYWGQGTQVTVSS | high polyreactivity
QVQLVESGGGLVQAGGSLRLSCAASGVTFYAYAMAWYRQAPGKERELVAVISQSGTRTYYADSVKGRFTISRDNAKNTVYLQMNSLKPEDTAVYYCAAPKAQLQPYYYWGQGTQVTVSS | high polyreactivity
QVQLVESGGGLVQAGGSLRLSCAASGYAMGWYRQAPGKERELGAAITSGGSTNYADSVKGRFTISRDNAKNTVYLQMNSVKPEDTAVYYCAAAYSLYGHRYDYWGQGTQVTVSS | low polyreactivity
QVQLVESGGGLVQAGGSLRLSCAASGYAMGWYRQAPGKERELVAAISWSGDITYADSVKGRFTISRDNAKNTVYLQMNRLKPEDTAVYYCNADRYTGRDGEQSLDYWGQGTQVTVSS | low polyreactivity
QVQLVESGGGLVQAGGSLRLSCAASGYIFALNAMGWYRQAPGKERELVASITGAGSTNYADSVKGRFTISRDNAKNTVYLQMNSLKPEDTAVYYCAKRTRRRGYYYWGQGTQVTVSS | high polyreactivity
QVQLVESGGGLVQAGGSLRLSCAASGYIFARYAMGWYRQAPGKERELVASISRRGTSTYYADSVKGRFTISRDNAKNTDYLQMNSLKPEDTAVYYCNKEYYIYRTGTIGERSDMGYWGQGTQVTVSS | high polyreactivity
QVQLVESGGGLVQAGGSLRLSCAASGYIFAYYAMGWYRQAPGKERELVATIRSGGSTNYADSVKGRFTISRDNAKNTGYLQMNILKPEDTAVYYCARDDATACDYWGQGSQVTVSS | low polyreactivity
QVQLVESGGGLVQAGGSLRLSCAASGYIFDGNAMGLYRQAPGKERELVASISSGTSTYYADSVKGRFTISRDNAKNTVYLQMNSLKPEATAVYYCNAGVEFAASLYYSDNYDYWGQGTQVTVSS | low polyreactivity
QVQLVESGGGLVQAGGSLRLSCAASGYIFDRYAMGWYRQAPGKERELVAAISGRGGSTYYADSVKGRFTISRDNAKNTVYLQMNSLKPEDTAVYYCARDVYVRIGQRARYDSWGQGTQVTVSS | high polyreactivity
QVQLVESGGGLVQAGGSLRLSCAASGYIFDRYAMGWYRQAPGKERELVAAITNGGRTYYADSVKGRFTISRDNAKNTVYLQMNSLKPEDTAVYYCAAVVYSRGYYWGQGTQVTVSS | high polyreactivity
QVQLVESGGGLVQAGGSLRLSCAASGYIFDSNVMGWYRQAPGKERELVARIRWSGGSTYYADSVKGRFTISRDNAKNTVYLQMNSLKPEDTAVYYCNVVSYYIAGGWYEGDYWGQGTQVTVSS | low polyreactivity

Sequence | polyreactivity (PSR sort gate)
QVQLVESGGGLVQAGGSLRLSCAASGYIFDVNTMGWYRQAPGKERELVAVIRRGGSTTYADSVKGRFTISRDNAKNTVYLQMNSLKPEDTAVYYCNARVTLGRPLFTYLVRYEYWGQGTQVTVSS | high polyreactivity
QVQLVESGGGLVQAGGSLRLSCAASGYIFDYYAMGWYRQAPGKESELVAAISSSGGTTYYADSVKGRFTISRDNAKNTFYLQMNSLKPEDTAVYYCAARKSRWHRGYYYWGQGTQVTVSS | high polyreactivity
QVQLVESGGGLVQAGGSLRLSCAASGYIFEYYAMGWYRQAPGKDRELVAAISWSGGSTYYADSVKGRFTISRDNAKNTVYLQMNSLKPEDTAVYYCAAESYLPYWDSYYRYDYWGQGTQVTVSS | low polyreactivity
QVQLVESGGGLVQAGGSLRLSCAASGYIFFFNAMAWYRQAPGKERELVAAITRRGVSTYYADSVKGRFTISRDNAKNTVYLQMNSLKPEDTAVYYCATEHNHLGYYYWGQGTQVTVSS | low polyreactivity
QVQLVESGGGLVQAGGSLRLSCAASGYIFGGYAMGWNRQAHGKERELVAGISIGVGSTYYADSVKGRFTISRDKAKNTVNLQMNSLKPEDTAVYYCNRDSVGYDYWGQGTQVTVSS | low polyreactivity
QVQLVESGGGLVQAGGSLRLSCAASGYIFGQNHMGWYRQAPGKERELVAAISSDGSTYYADSVKGRFTISRDNAKNTVYLQMNSLKQEDTAVYYCKYYHQRFPYRQVYYWGQGTQVTVSS | low polyreactivity
QVQLVESGGGLVQAGGSLRLSCAASGYIFGQYAMGWYRQAPGKERELVADITRGGDTYYADSVKGRFTISRDNAKNTVYLQMNSLKPEDTAVYYCAADSFYWAWQYDYWGQGTQVTVSS | high polyreactivity
QVQLVESGGGLVQAGGSLRLSCAASGYIFGSYAMGWYRQAPGKERELVASITRVDSTNYADSVKGRFTISRDNAKNTVYLQMNSLKAEDTAVYYCAADITTPAYATYDYWGQGTQVTVSS | low polyreactivity
QVQLVESGGGLVQAGGSLRLSCAASGYIFGSYTMGWYRQAPAKERELVAGISRRGGGTYYADSVKGRFTISRDNAKNTVYLQMNSLKPEDTAVYYCAAEVITIGLYRYGYWGQGTQVTVSS | high polyreactivity
QVQLVESGGGLVQAGGSLRLSCAASGYIFGVYAMGWYRQAPGKERELVAAISYGVGSTYYADSVKVRFTISRDNAKNTVYFQMNSLKPEDTAVYYCAADVFFYVYEAYLLYYWGQGSQVTVSS | low polyreactivity
QVQLVESGGGLVQAGGSLRLSCAASGYIFGWYAMGWYRQAPGKERELVATIDWSGDSTYYADSVKGRFTISRDNAKNTVYLQMNSLKPEDTAVYYCAVGYSYYPSDEFDYWGQGTQVTVSS | low polyreactivity
QVQLVESGGGLVQAGGSLRLSCAASGYIFIGYAMGWYRQAPGKERELVTYADSVKGRFTISRDNAKNTVYFQMNSRKPEDTAVYYCNKVPRRFSGLDENYWGQGTQVTVSS | low polyreactivity
QVQLVESGGGLVQAGGSLRLSCAASGYIFKYNAMGWYIQAPGKERELVAAISGRGGSTYYADSVKGRFTISRDNAKNTVYLQMNSLKPEDTAVYYCNADYQARRYNYWGQGTQVTVSS | high polyreactivity
QVQLVESGGGLVQAGGSLRLSCAASGYIFKYYAMGWYRQAPGKERELVAAISRSGGSTYYADSVKGRFTISRDNAKNTVYLQMNSLNPEDTAVYYCAADSYYYQGYRRYNYDYWGQGTQVTVSS | high polyreactivity
QVQLVESGGGLVQAGGSLRLSCAASGYIFLGNAMGWYRQAPGKERELVAAISRSGGSTYYADSVKGRFTISRDNAQNTVYLQMNSLKPEDTAVYYCNRDRQKIGYTYKYDYWGQGTQVTVSS | high polyreactivity
QVQLVESGGGLVQAGGSLRLSCAASGYIFNLNAMGWYRQAPGKERELVAAITRSGGSTYYADSVKGRFTISRDNAKNTVYLQMNSQKPEDTAVYYCAARGPYYRPWYKYDYWGQGTQVTVSS | high polyreactivity
QVQLVESGGGLVQAGGSLRLSCAASGYIFPGNAMGWYRQAPGKERELVATISGSAGSTSYADSVKGRFTISRDNAKNTVYLQMNSLKPEDTAVYYCNKAYSYSWGDLDYWGQGTQVTVSS | high polyreactivity
QVQLVESGGGLVQAGGSLRLSCAASGYIFPGNAMGWYRQAPGKERELVATITDDTSTNYADSVKGRFTISRDNAKNTVYLQMNSLKPEDTAVYYCAADLYYWYPYLYDYWGQGTQVTVSS | low polyreactivity
QVQLVESGGGLVQAGGSLRLSCAASGYIFPSYAMGWYRQAPGKERELVAAISESGGSTNYSDSVKGRFTISRDYAKNTVYLQLNSLKPEDTAVYYCAAGYYTVPPDMNSWGQGTQVTVSS | low polyreactivity
QVQLVESGGGLVQAGGSLRLSCAASGYIFPTNAMGWYRPATRKERELLAVITSGGSTYYADSVKGRFTISRDNAKNTVYLLMNSLKPDDTAVYYCAARYQGRYGIYRVLYGYWGQGTQVTVSS | high polyreactivity
QVQLVESGGGLVQAGGSLRLSCAASGYIFQWYDMGWYRQAPGKERELVAAISVTTGSTYYADSVKGRFTISRDNAKNTVYLQMNSLKPEDTAVYYCAAVSWYRHDMYYWGQGTQVTVSS | low polyreactivity

Source: the nanobody polyreactivity screen of Harvey et al. (2022)
